Test results from paper doi:10.1101/2025.01.21.634112.

Columns and labels:
[1] = molecular target: Monodelphis domestica von Willebrand Factor (VWF) (Monodelphis domestica)
[2] = molecular target: human von Willebrand Factor (VWF) (human) (UniProt P04275)

“botrocetin from Bothrops jararaca (complex)” showed a reduction in the overall extent of platelet adhesion to collagen under flow (60 dyn/cm^2, 10 min) in opossum PRP with 4 ug/mL botrocetin, compared to the negative control [1] of 39% and a reduction in the overall extent of platelet adhesion to collagen under flow (60 dyn/cm^2, 10 min) in human PRP with 4 ug/mL botrocetin, compared to the negative control [2] of 66%.
